Data taken from PMC6249382, “The Maize Sulfite Reductase Is Involved in Cold and Oxidative Stress Responses” (Frontiers in Plant Science, 2018).

Substrate: O=S(O)O
Assay: steady-state kinetics, Lineweaver-Burk plot
Assay type: biochemical, Zea mays
Details: 400 μM NADPH as electron donor (printed "electron acceptor"); sulfite 2.5-400 μM; 1.0 μg enzyme

B1: ZmSiR (Zea mays) (protein)
chain: MSGAIGGAEVHGFRGAAAQLPRSRVLGRPIRVAPPAAARPGGASAGSIRAVSAPAKKDASEVKRSKVEIIKEKSNFLRYPLNEELVSEAPNINESAVQLIKFHGSYQQTDRDVRGQKNYSFMLRTKNPCGKVPNQLYLAMDTLADEFGIGTLRLTTRQTFQLHGVLKKNLKTVLSTVIKNMGSTLGACGDLNRNVLAPAAPYVKKDILFAQQTAENIAALLTPQSGAYYDLWVDGEKIMSAEEPPEVTKARNDNSHGTNFPDSPEPIYGTQYLPRKFKVAVTAAGDNSVDILTNDIGVVVVSDDAGEPIGFNIYVGGGMGRTHRVETTFPRLADPLGYVPKEDILYAIKAIVVTQRENGRRDDRKYSRMKYMIDRWGIDRFRAEVEKYYGKKFESFRPLPEWQFNSYLGWQEQGDGKLFYGVHVDNGRVGGQAKKTLREIIEKYNLDVSITPNQNLILCGIDQAWREPITTALAQAGLLEPKDVDPLNLTAMACPALPLCPLAQTEAERGILPILKRIRAVFNKVGIKDSESVVVRITGCPNGCARPYMAELGFVGDGPKSYQIWLGGTPNQSTLAESFMDKVKLDDIEKVLEPLFTYWNGTRQEGESFGSFTNRTGFDKLKEVVNKWAESPSAA
Question: B1 was tested. Which Km did it give?
Answer: The Km was 5.32 ± 0.26 µM.
